In patent US7456147B2, “Controlled release of active agents utilizing repeat sequence protein polymers” (Dow Corning, Corporation, priority 2003, dated 2008):

Assay: Isoelectric point of SELP repeat sequence protein polymers
Format: physicochemical

Substance: SELP47K: silk-elastin repeat sequence protein block copolymer, head-[(GAGAGS)2(GVGVP)3GKGVP(GVGP)4(GAGAGS)2]13-tail, 886 amino acids
- pI of the protein: 10.5
